167 variants from the Human Domainome abundance scans (Beltran et al. 2025) can be followed below.

± gives the uncertainty stated by the source.

B1: Cold shock protein CspB, residues 1 to 66; numbered along this chain, P41016 (parent)
chain: MQRGKVKWFNNEKGYGFIEVEGGSDVFVHFTAIQGEGFKTLEEGQEVSFEIVQGNRGPQAANVVKL

Variants of B1 are the subject of the data set. As to the kind of experiment: abundance fitness (aPCA) (normalised: wild type 0, dead -1); higher = more abundant; growth selection in yeast, the domain comes from the species named. As to conditions: Bacillus caldolyticus.
As to E42H, the abundance fitness was 0.008 ± 0.11. Then E42Q, with 0.043 ± 0.066; and E42F, with -0.048 ± 0.049; and E42Y, with -0.036 ± 0.059. With E42L the figure was -0.006 ± 0.031; with E42M, -0.006 ± 0.048.

In the case of E42G, the abundance fitness is -0.001 ± 0.036. Turning to V26Y, the abundance fitness was -0.074 ± 0.054.

Regarding V26K, the abundance fitness is -0.251 ± 0.059.

As for V26Q, the abundance fitness is -0.173 ± 0.04. Then V26D, with -0.529 ± 0.06; and V26E, with -0.372 ± 0.043; and V26R, with -0.248 ± 0.032.

As to V26W, the abundance fitness is -0.23 ± 0.035. For the variant V26C, the abundance fitness was -0.053 ± 0.048. Then V26M, with -0.056 ± 0.043; and V26I, with -0.017 ± 0.045. Then V26H, with -0.132 ± 0.075; and V26G, with -0.573 ± 0.036. With V26P the figure was -0.566 ± 0.038; with V26F, -0.11 ± 0.054.

For V26S, the abundance fitness is -0.195 ± 0.029. Then H29I, with -0.538 ± 0.16. With H29L the figure was -0.48 ± 0.12; with H29Y, -0.149 ± 0.052; with H29R, -0.281 ± 0.11. Then H29S, with -0.345 ± 0.14; and H29M, with -0.274 ± 0.13; and H29N, with -0.228 ± 0.12. With H29T, the abundance fitness is -0.28 ± 0.12. Then H29K, with -0.197 ± 0.13; and H29A, with -0.532 ± 0.39; and H29V, with -0.506 ± 0.28. Then H29Q, with -0.174 ± 0.15. Then Q34K, with 0.01 ± 0.053. Regarding Q34D, the abundance fitness came out at 0.079 ± 0.11. Then Q34G, with -0.005 ± 0.041; and Q34T, with -0.008 ± 0.051. Turning to Q34P, the abundance fitness is -0.062 ± 0.04. Then Q34F, with 0.052 ± 0.14. Then Q34S, with -0.003 ± 0.047. With Q34M the figure was 0.006 ± 0.042; with Q34I, -0.169 ± 0.087. Regarding Q34L, the abundance fitness was -0.02 ± 0.031.

As to Q34Y, the abundance fitness was -0.073 ± 0.082. Turning to Q34R, the abundance fitness amounted to 0.001 ± 0.034.

For Q34N, the abundance fitness stood at 0.053 ± 0.11. With Q34W the figure was -0.049 ± 0.043; with Q34C, -0.071 ± 0.066; with Q34H, -0.123 ± 0.15. Then Q34V, with 0.048 ± 0.045; and F30Q, with -0.025 ± 0.074. Then F30L, with -0.103 ± 0.027; and F30A, with -0.035 ± 0.047. Regarding F30P, the abundance fitness is -0.227 ± 0.05. With F30K, the abundance fitness was -0.016 ± 0.057. With F30N the figure was -0.07 ± 0.077. Then F30T, with -0.127 ± 0.05; and F30S, with -0.047 ± 0.036. Take F30G: the abundance fitness is -0.089 ± 0.04. With F30C the figure was -0.091 ± 0.052; with F30W, -0.026 ± 0.051. Then F30M, with -0.169 ± 0.047; and F30H, with -0.023 ± 0.067; and F30Y, with 0.011 ± 0.041. Then F30D, with -0.188 ± 0.068; and F30V, with -0.049 ± 0.047. Regarding F30I, the abundance fitness was -0.087 ± 0.068.

On to E43I, for which the abundance fitness was -0.031 ± 0.065. Take E43W: the abundance fitness was -0.045 ± 0.034. With E43K the figure was 0.059 ± 0.069; with E43G, 0.04 ± 0.04. As to E43T, the abundance fitness is 0.025 ± 0.052. With E43A the figure was 0.023 ± 0.047; with E43Q, 0.025 ± 0.058; with E43M, 0.022 ± 0.056.

Regarding E43C, the abundance fitness turned out to be 0.032 ± 0.092. With E43S the figure was -0.014 ± 0.038; with E43V, -0.033 ± 0.05; with E43L, -0.012 ± 0.034. Then E43R, with 0.032 ± 0.039. Then E43N, with 0.01 ± 0.076; and E43H, with 0.03 ± 0.087. Consider E43P, for which the abundance fitness was 0.004 ± 0.045. Then G35Y, with -0.068 ± 0.074; and G35M, with 0.002 ± 0.035. On to G35W, for which the abundance fitness was -0.134 ± 0.044.

For the variant G35P, the abundance fitness is -0.172 ± 0.045. With G35T the figure was -0.084 ± 0.054; with G35D, -0.004 ± 0.076; with G35N, -0.06 ± 0.11. With G35V the figure was -0.033 ± 0.037; with G35F, -0.067 ± 0.059. Consider G35S, for which the abundance fitness was -0.035 ± 0.039. As for G35K, the abundance fitness was -0.112 ± 0.056. With G35L the figure was -0.127 ± 0.025.

Consider G35I, for which the abundance fitness is -0.108 ± 0.061. Regarding G35R, the abundance fitness was -0.111 ± 0.033.

Consider G35Q, for which the abundance fitness came out at 0.001 ± 0.045.

With G35E, the abundance fitness was -0.001 ± 0.038. Then G35C, with 0.02 ± 0.069; and S24W, with -0.031 ± 0.039. Then S24F, with -0.025 ± 0.058; and S24P, with 0.012 ± 0.057; and S24V, with -0.016 ± 0.039. As to S24L, the abundance fitness was -0.002 ± 0.033. Then S24N, with 0.004 ± 0.081; and S24C, with -0.029 ± 0.041.

Turning to S24I, the abundance fitness was -0.033 ± 0.081. In the case of S24M, the abundance fitness is -0.019 ± 0.055. With S24Y, the abundance fitness is -0.016 ± 0.084. With S24Q the figure was -0.004 ± 0.055; with S24D, -0.002 ± 0.071. Then S24A, with -0.011 ± 0.055; and S24H, with 0.007 ± 0.072. Then S24T, with 0.003 ± 0.047; and S24R, with 0.01 ± 0.029; and S24K, with 0.015 ± 0.049.

On to T40S, for which the abundance fitness is -0.023 ± 0.034. Then T40I, with -0.032 ± 0.044. With T40L the figure was -0.087 ± 0.026.

As for T40Y, the abundance fitness was -0.037 ± 0.051. With T40D the figure was -0.112 ± 0.052; with T40N, -0.078 ± 0.048.

For the variant T40C, the abundance fitness was -0.006 ± 0.062. With T40E the figure was -0.027 ± 0.061; with T40A, -0.022 ± 0.038. Then T40K, with -0.065 ± 0.048. Then T40G, with -0.048 ± 0.042; and T40Q, with -0.041 ± 0.041. T40H: the abundance fitness is -0.064 ± 0.047. On to T40M, for which the abundance fitness was -0.04 ± 0.04. With T40W the figure was -0.076 ± 0.051; with T40P, -0.227 ± 0.036; with T40V, -0.043 ± 0.041. With T40R the figure was -0.043 ± 0.032; with T40F, -0.009 ± 0.055. With F27A the figure was -0.206 ± 0.037; with F27C, -0.243 ± 0.047; with F27Y, 0.003 ± 0.054.

Take F27P: the abundance fitness was -0.161 ± 0.042. Then F27G, with -0.229 ± 0.031; and F27M, with -0.169 ± 0.049; and F27L, with -0.187 ± 0.029. With F27H the figure was -0.075 ± 0.077. In the case of F27Q, the abundance fitness was -0.208 ± 0.04. Then F27S, with -0.212 ± 0.03. Then F27N, with -0.335 ± 0.1; and F27E, with -0.183 ± 0.041. With F27W the figure was -0.102 ± 0.035; with F27I, -0.208 ± 0.056; with F27R, -0.176 ± 0.028. On to I33F, for which the abundance fitness is -0.111 ± 0.046. Then I33G, with -0.41 ± 0.033. With I33M the figure was -0.144 ± 0.04; with I33Q, -0.381 ± 0.04; with I33R, -0.484 ± 0.039. With I33L the figure was -0.082 ± 0.03. For I33A, the abundance fitness is -0.311 ± 0.038.

I33K: the abundance fitness is -0.456 ± 0.056. With I33V the figure was -0.024 ± 0.033.

Regarding I33S, the abundance fitness is -0.422 ± 0.031. Turning to I33E, the abundance fitness was -0.477 ± 0.041.

With I33Y, the abundance fitness was -0.527 ± 0.069.

With I33D, the abundance fitness was -0.369 ± 0.057. With I33W the figure was -0.462 ± 0.052. With I33C the figure was -0.127 ± 0.052.
